Assay results: US20190248902A1 (published 2019)
Where a chain is given by its changes, count along the chain named.

T1: recombinant, soluble human ASGR-1 (human, UniProt P07306 62-291)
T1 construct: biotinylated in the binning assay; also called soluble huASGR-1; Soluble ASGR-1 (Amgen)
T1 sequence: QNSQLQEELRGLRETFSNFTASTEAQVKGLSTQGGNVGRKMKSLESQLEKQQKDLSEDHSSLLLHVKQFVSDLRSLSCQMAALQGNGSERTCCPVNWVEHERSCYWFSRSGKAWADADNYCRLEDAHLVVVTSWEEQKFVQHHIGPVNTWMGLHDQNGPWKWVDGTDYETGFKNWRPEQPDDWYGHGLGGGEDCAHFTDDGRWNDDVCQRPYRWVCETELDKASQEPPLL

B1: 65E9 (antibody, V domains shown)
VH: not shown
VL: SYELTQPPSVSVSPGQTASITCSGDKLGNKYDYWYQQKPGQSPVLVIYQDRKRPSGIPERFSGSNSGNTATLTISGTQAMDEADYYCQAWDNSTVVFGGGTKLTVL
notes: hybridoma mAb
B2: 58G11 (antibody, V domains shown)
VH: EVQLVESGGGLVQPGGSLRLSCAASGFTFSSYSMNWVRQAPGKGLEWISYISTSSSTIFYADSVKGRFTISRDSAKNSLYLQMNSLRDEDTAVYYCARGDTAMVLYYYGMDVWGQGTTVTVSS
VL: B1 VL with N29D, D32A, Y33S, R51N, D91N, S93N, V96M
notes: hybridoma mAb
B3: 52H1 (antibody, V domains shown)
VH: QVQLVESGGGVVQPGRSLRLSCAASGFTFSGYGMHWVRQAPGKGLEWVAVIWYDGSNKYYADSVKGRFTISRDNSKNTLYLQMNSLRAEDTAVYYCARDRVYCSSSSCSYYYYYYGMDVWGQGTTVTVSS
VL: B1 VL with S11F, C22S, N29D, D32V, Y33S
notes: hybridoma mAb
B4: 72B4 (antibody, V domains shown)
VH: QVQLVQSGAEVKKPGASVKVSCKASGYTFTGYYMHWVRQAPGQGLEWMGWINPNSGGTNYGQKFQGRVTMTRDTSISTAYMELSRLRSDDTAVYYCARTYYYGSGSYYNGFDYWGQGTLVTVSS
VL: B1 VL with N29D, D32A, Y33W, K38R, Q49E
notes: hybridoma mAb
B5: 4B3 (antibody, V domains shown)
VH: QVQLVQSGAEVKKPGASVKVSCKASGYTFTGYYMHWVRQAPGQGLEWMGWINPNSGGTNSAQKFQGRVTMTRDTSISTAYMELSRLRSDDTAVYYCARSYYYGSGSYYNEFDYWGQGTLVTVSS
VL: B1 VL with G15R, A18V, N29D, D32A, Y33C, S93N, V96I
notes: hybridoma mAb
B6: 50G9 (antibody, V domains shown)
VH: QVQLVESGGGVVQPGRSLRLSCAASGFIFSSYGMHWVRQAPGKGLEWVAVISQDGIIRYYADSVKGRFTISRDNSKNTLYLQMNSLRAEDTAVYYCARDVKQWLVRTYGMDVWGQGTTVTVSS
VL: SYELTQPPSVSVSPGQTASITCSGDKLGDKYACWYQQKPGQSPVLVIYQDSKRPSGIPERFSGSNSGNTATLTISGTQARDEAEYYCQARNSRRGVFGGGTRLTVL
notes: hybridoma mAb
B7: 175D10 (antibody, V domains shown)
VH: QVQLVQSGAEVKKPGASVKVSCKASGYTFTNYDLNWVRQATGQGLEWMGWMHPNSGNTGYAQKFQGRVTMTRNTSISTVYMELSSLRSEDTAVYYCAYSSGWYYFDYWGQGTLVTVSS
VL: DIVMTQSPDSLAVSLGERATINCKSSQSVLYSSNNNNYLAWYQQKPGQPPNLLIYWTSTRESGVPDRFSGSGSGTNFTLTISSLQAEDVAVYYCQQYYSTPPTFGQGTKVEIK
notes: hybridoma mAb
B8: 25A4 (antibody, V domains shown)
VH: B7 VH with Q3L, K13R, L34I, H52Y, V79A, Y98S
VL: DIVMTQFPDSLAVSLGERATIKCKSSQSVLYSSHNNNYLAWYQQKPGQPPKLLLYWASTRESGVPDRFSGSGSGTEFTLTISSLEAEDVAVYYCQQYYSTPPTFGQGTKVEIK
notes: hybridoma mAb
B9: 4A2 (antibody, V domains shown)
VH: B7 VH with A9T, L34I, M70L, V79A, Y98S
VL: DIVMTQSPDSLAVSLGERATINCKSSQSILHSSNNNNYLAWFQQKPGQPPKLLLYWASTRESGVPDRFSGSGSGTDFTLTISSLQPEDVAVYYCQQYYNTPVTFGPGTKVGIK
notes: hybridoma mAb
B10: 26C4 (antibody, V domains shown)
VH: B7 VH with L34I, T41S, H52N, K63R, S77N, V79A, Y98S
VL: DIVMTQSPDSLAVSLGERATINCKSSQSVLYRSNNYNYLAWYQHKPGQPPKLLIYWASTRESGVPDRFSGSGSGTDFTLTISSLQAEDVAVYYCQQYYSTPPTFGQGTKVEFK
notes: hybridoma mAb
B11: 29H8 (antibody, V domains shown)
VH: B7 VH with K12Q, L34I, H52N, K63R, T78A, V79A, Y98S
VL: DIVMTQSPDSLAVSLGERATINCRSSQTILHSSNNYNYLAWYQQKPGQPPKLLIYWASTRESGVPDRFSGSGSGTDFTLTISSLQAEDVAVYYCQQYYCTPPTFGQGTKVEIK
notes: hybridoma mAb
B12: 32D6 (antibody, V domains shown)
VH: QVQLVESGGGVVQPGRSLRLSCAASGFTFSSYGMHWVRQAPGKGLEWVTVIWHDGSNAYYADSVKGRFTISRDNSKNTLYLQMNSLRAEDTAVYYCARENSSSYYFDYWGQGTLVTVSS
VL: DIQMTQSPSSLSTSVGDRVTITCRASQNIISYLNWYQQKPGKAPKLLMYVASRLQSGVPSRFSGSGSGTDFTLTISSLQAEDFATYYCQQSYSTPYTFGGGTKVAIK
notes: hybridoma mAb
B13: 5E5 (antibody, V domains shown)
VH: QVQLVESGGGVVQPGRSLRLSCAASGFTFSNYVMHWVRQAPGKGLEWVAVIWYDGSNKYYADSVKGRFTISRDNSKNTLYLQMNSLRAEDTAVYYCTREVYSSGWYDYGMDVWGQGTTVTVSS
VL: DIQMTQSPSSLSASVGDRVTITCRASQGIRNDLGWYQQKPGKAPKRLIYAASSLQSGVPSRFSGSGSGTEFTLTISSLQPEDFATYYCLQHYSYPRTFGQGTKVEVK
notes: hybridoma mAb
B14: 7G4 (antibody, V domains shown)
VH: B13 VH with S30N, N84T, T97A, V100K, G104N
VL: B13 VL with K39R, F83S, Q90H, H91Q, V106I
notes: hybridoma mAb
B15: 45B4 (antibody, V domains shown)
VH: B13 VH with N31D, Y32C, T97A, V100R, W105L
VL: B13 VL with I21F, N31D, V106I
notes: hybridoma mAb
B16: 29E2 (antibody, V domains shown)
VH: B13 VH with Y32C, F68I, T97A, V100E
VL: B13 VL with G28A, K39R, T72I, S93N, T97S, V104L, V106I
notes: hybridoma mAb
B17: 159H8 (antibody, V domains shown)
VH: QVQLVESGGGVVQPGRSLRLSCAASGFTFSTYGMHWVRQAPGKGLEWVAVIWYDGSNKYYADSVKGRFTISRDNSKNTLYLQMNSLRAEDTAVYYCARDRVSCSSTSCPYYYYYGMDVWGQGTTVTVSS
VL: SYELTQPPSVSVSPGQTASITCSGDKLGDKYVCWYQQKPGQSPVLVIYQDRKRPSGIPERFSGSNSGNTATLTISGTQALDEADYYCQAWGNSSFVVFGGGTKLTVL
notes: hybridoma mAb
B18: 160B12 (antibody, V domains shown)
VH: B17 VH with T31S
VL: B17 VL with Y2D, P7S, R51S
notes: hybridoma mAb
B19: 177D2 (antibody, V domains shown)
VH: QVQLVESGGGVVQPGRSLRLSCAASGFTFSSYGMDWVRQAPGKGLEWVAIIWFDGSNKYYADSVKGRFTISRDNSKNTLYLQMNSLRAEDTAVYYCARAYCGGDCYFPHLHYYGMDVWGQGTTVTVSS
VL: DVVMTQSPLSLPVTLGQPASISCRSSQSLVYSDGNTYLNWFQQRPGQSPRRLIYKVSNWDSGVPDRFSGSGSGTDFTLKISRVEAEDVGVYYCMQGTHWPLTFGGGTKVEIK
notes: hybridoma mAb

Biological target: T1, recombinant, soluble human ASGR-1
Experiment: Octet BLI dissociation, pH 5.6 plus calcium
Description: (§1) The relative dissociation of ASGR-1 from antibodies was measured using a label-free assay on an OctetHTX instrument (Fortebio). Antibody samples were captured on anti-HuFc kinetic biosensors (ForteBio cat #18-5064) at 5 ug/mL in assay buffer (10 mM Tris, 0.1% Triton, 150 mM NaCl, 1 mg/mL BSA, 1 mM CaCl2, pH7.4) for three minutes. A one minute baseline stabilization step was performed in assay buffer. Soluble ASGR-1 (Amgen) at 6 ug/ml in assay buffer was added and association to the antibodies was monitored for two minutes. Subsequent dissociation of ASGR-1 from the antibodies was performed by incubating the ASGR-1-mAb complexes for 10 minutes under each of the following conditions:
(§2) The binding signal at the end of the 2 minute association phase for each dissociation experiment was set to 100% and used to represent the maximal level of ASGR-1 binding. After 1 minute of dissociation, the percentage of ASGR-1 remaining bound was calculated. The lower the percent remaining at a given time point indicates increased levels of dissociation in response to the test conditions (ie. different pH and/or calcium concentrations). The change in the percentage of ASGR-1 remaining bound in response to each test condition relative to the percent remaining in the control conditions (ie. pH 7.4+calcium) was determined. Cut-offs for an antibody to be categorized as being sensitive to a particular condition were set to >10% (ie. if >10% of the ASGR-1 dissociates from the antibody under a particular test condition compared to control condition, it was deemed sensitive to that condition). The analysis was done using the 1 minute dissociation time point (except for mAb 149A1 which was binned based on the 4 minute dissociation time point). Using this analysis, the ASGR-1-binding, receptor-ligand blocking antibodies were separated into groups according to their dissociation profiles in response to pH and calcium (Table 7.3). Antibodies belonging to each category were observed.

Binder	% Change Compared to pH 7.4 + Calcium [%]
B1	30
B2	12
B3	-1
B4	26
B5	33
B6	62
B7	-3
B8	-3
B9	-3
B10	2
B11	-2
B12	33
B13	18
B14	1
B15	10
B16	25
B17	10
B18	8
B19	2

Biological target: T1, recombinant, soluble human ASGR-1
Experiment: Octet BLI dissociation, pH 5.6 minus calcium
Description: as §1, §2

Binder	% Change Compared to pH 7.4 + Calcium [%]
B1	35
B2	51
B3	10
B4	43
B5	45
B6	44
B7	2
B8	-1
B9	1
B10	2
B11	2
B12	55
B13	42
B14	7
B15	23
B16	38
B17	26
B18	22
B19	10

Biological target: T1, recombinant, soluble human ASGR-1
Experiment: Octet BLI dissociation, pH 7.4 minus calcium
Description: as §1, §2

Binder	% Change Compared to pH 7.4 + Calcium [%]
B1	22
B2	38
B3	5
B4	32
B5	12
B6	37
B7	4
B8	2
B9	1
B10	3
B11	2
B12	26
B13	7
B14	2
B15	4
B16	5
B17	6
B18	6
B19	3
